Measurements as given in patent US8563513 (VAN ANDEL RESEARCH INSTITUTE, dated 2013).
Values belong to the binder of their own block, whether it stands above or below them. Where no end group is shown, it is not given here.

Tests used:
[1] = target: T1, PTH1R in cell membranes, G protein-coupled conformation (RG) (UniProt Q03431 27-593); assay: competition binding, PTH1R in cell membranes, RG state (dominant negative Gαs), n = 3
T1 construct: whole, on cells; Cell membranes, not intact cells; RG state studied by co-expressing the receptor with dominant negative Gαs; also called G protein-coupled receptor

[2] = target: T2, MBP-PTH1R ECD-(His)6 fusion protein (UniProt Q03431 29-187); assay: AlphaScreen single point competition; peptide 20 µM against biotin-PTH(7-34)NH2 (23 nM) on MBP-PTH1R-ECD (23 nM) [panel I]
T2 construct: range 29-187; Expressed in E. coli, disulfide shuffled in vitro; also called MBP-PTH1R ECD-H6; MBP-PTH1R ECD fusion protein
T2 sequence: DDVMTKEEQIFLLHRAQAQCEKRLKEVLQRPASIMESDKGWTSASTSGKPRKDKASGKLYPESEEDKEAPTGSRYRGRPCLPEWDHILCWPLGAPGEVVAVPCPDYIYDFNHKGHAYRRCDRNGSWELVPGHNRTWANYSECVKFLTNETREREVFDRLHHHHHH
Method: (§1) ECD-peptide binding assays. The binding of peptides to the MBP-PTH1R ECD-H6 fusion protein was assessed using an AlphaScreen assay (Perkin-Elmer). […] The pre-coupling reactions were mixed, un-labeled competitor peptides were added as indicated, and the reactions were incubated 4 to 5 hrs to reach equilibrium. Photon counts were recorded in 384-well optiplates using an Envision 2104 plate reader (Perkin-Elmer). Prism 5.0 software (GraphPad Software, San Diego) was used to fit the data to a fixed-slope dose-response inhibition equation for determination of IC50 values. Real-time analysis of the binding of peptides to the isolated PTH1R ECD using the Octet Red system (ForteBio) was performed as described in below.

[3] = target: T2, MBP-PTH1R ECD-(His)6 fusion protein; assay: AlphaScreen single point competition; peptide 20 µM against biotin-PTH(7-34)NH2 (23 nM) on MBP-PTH1R-ECD (23 nM) [panel B]
Method: as §1

[4] = target: T2, MBP-PTH1R ECD-(His)6 fusion protein; assay: AlphaScreen single point competition; peptide 20 µM against biotin-PTH(7-34)NH2 (23 nM) on MBP-PTH1R-ECD (23 nM) [panel H]
Method: as §1

[5] = target: T2, MBP-PTH1R ECD-(His)6 fusion protein; assay: AlphaScreen single point competition; peptide 20 µM against biotin-PTH(7-34)NH2 (23 nM) on MBP-PTH1R-ECD (23 nM) [panel A]
Method: as §1

T1 sequence (Q03431 27-593): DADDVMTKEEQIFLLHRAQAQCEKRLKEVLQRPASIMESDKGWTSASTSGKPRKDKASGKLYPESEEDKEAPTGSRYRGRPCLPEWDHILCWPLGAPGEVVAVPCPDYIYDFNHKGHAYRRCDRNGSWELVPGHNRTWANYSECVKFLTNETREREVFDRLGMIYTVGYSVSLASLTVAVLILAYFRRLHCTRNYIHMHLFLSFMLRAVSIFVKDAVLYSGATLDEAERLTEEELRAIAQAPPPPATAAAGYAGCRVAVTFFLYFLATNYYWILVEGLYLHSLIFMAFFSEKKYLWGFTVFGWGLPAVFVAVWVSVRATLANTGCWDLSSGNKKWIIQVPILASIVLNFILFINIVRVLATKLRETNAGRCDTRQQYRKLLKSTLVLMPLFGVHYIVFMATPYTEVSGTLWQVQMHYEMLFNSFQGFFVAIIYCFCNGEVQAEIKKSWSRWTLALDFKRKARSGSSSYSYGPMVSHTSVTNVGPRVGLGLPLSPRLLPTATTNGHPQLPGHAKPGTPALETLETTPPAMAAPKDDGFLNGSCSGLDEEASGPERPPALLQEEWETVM

IC50 [1]: 0.38 nM
IC50 Log M [1]: -9.5 Log M
B1: PTH(1-34)NH2 [K27L/L28I] (peptide)
peptide: SVSEIQLMHNLGKHLNSMERVEWLRKLIQDVHNF-NH2

binding result [2]: binds
B2: F23A (peptide)
peptide: GKSIQDLRRRFALHHLIAEIHTA-NH2
notes: also called PTHrP(12-34)NH2 [F23A]

binding result [3]: binds
B3: I28L/I31V (peptide)
peptide: GKSIQDLRRRFFLHHLLAEVHTA-NH2
notes: also called PTHrP(12-34)NH2 [I28L/I31V]

binding result [2]: binds
B4: L24A (peptide)
peptide: GKSIQDLRRRFFAHHLIAEIHTA-NH2
notes: also called PTHrP(12-34)NH2 [L24A]

binding result [2]: binds
B5: L27A (peptide)
peptide: GKSIQDLRRRFFLHHAIAEIHTA-NH2
notes: also called PTHrP(12-34)NH2 [L27A]

binding result [3]: binds
B6: F23W/I28L (peptide)
peptide: GKSIQDLRRRFWLHHLLAEIHTA-NH2
notes: also called PTHrP(12-34)NH2 [F23W/I28L]

binding result [2]: binds
B7: H32A (peptide)
peptide: GKSIQDLRRRFFLHHLIAEIATA-NH2
notes: also called PTHrP(12-34)NH2 [H32A]

binding result [3]: binds
B8: F23W/I31V (peptide)
peptide: GKSIQDLRRRFWLHHLIAEVHTA-NH2
notes: also called PTHrP(12-34)NH2 [F23W/I31V]

binding result [3]: binds
B9: PTHrP(12-34)NH2 [F23′W/L27′K] (peptide)
peptide: GKSIQDLRRRFWLHHKIAEIHTA-NH2
notes: Hybrid PTH/PTHrP peptide in the PTHrP(12-34)NH2 scaffold

binding result [3]: binds
B10: PTHrP(12-34)NH2 [F23′W/L27′K/I28′L/I31′V] (peptide)
peptide: GKSIQDLRRRFWLHHKLAEVHTA-NH2
notes: Quadruple swap peptide in the PTHrP(12-34)NH2 scaffold; also called quadruply mutant PTHrP peptide

binding result [2]: no binding (tested: 20 µM)
B11: R20A (peptide)
peptide: GKSIQDLRARFFLHHLIAEIHTA-NH2
notes: also called PTHrP(12-34)NH2 [R20A]

binding result [2]: binds
B12: I31A (peptide)
peptide: GKSIQDLRRRFFLHHLIAEAHTA-NH2
notes: also called PTHrP(12-34)NH2 [I31A]

binding result [2]: binds
B13: Q16A (peptide)
peptide: GKSIADLRRRFFLHHLIAEIHTA-NH2
notes: also called PTHrP(12-34)NH2 [Q16A]

binding result [2]: binds
B14: T33A (peptide)
peptide: GKSIQDLRRRFFLHHLIAEIHAA-NH2
notes: also called PTHrP(12-34)NH2 [T33A]

binding result [3]: binds
B15: PTHrP(12-34)NH2 [I31′V] (peptide)
peptide: GKSIQDLRRRFFLHHLIAEVHTA-NH2
notes: as for B9

binding result [3]: binds
B16: PTHrP(12-34)NH2 [L27′K/I31′V] (peptide)
peptide: GKSIQDLRRRFFLHHKIAEVHTA-NH2
notes: as for B9

binding result [3]: binds
B17: PTHrP(12-34)NH2 [F23′W] (peptide)
peptide: GKSIQDLRRRFWLHHLIAEIHTA-NH2
notes: as for B9

binding result [3]: binds
B18: PTHrP(12-34)NH2 [L27′K] (peptide)
peptide: GKSIQDLRRRFFLHHKIAEIHTA-NH2
notes: as for B9

binding result [2]: binds
B19: R21A (peptide)
peptide: GKSIQDLRRAFFLHHLIAEIHTA-NH2
notes: also called PTHrP(12-34)NH2 [R21A]

binding result [2]: binds
B20: I28A (peptide)
peptide: GKSIQDLRRRFFLHHLAAEIHTA-NH2
notes: also called PTHrP(12-34)NH2 [I28A]

binding result [3]: binds
B21: PTHrP(12-34)NH2 [L27′K/I28′L] (peptide)
peptide: GKSIQDLRRRFFLHHKLAEIHTA-NH2
notes: as for B9

binding result [3]: binds
B22: PTHrP(12-34)NH2 [I28′L] (peptide)
peptide: GKSIQDLRRRFFLHHLLAEIHTA-NH2
notes: as for B9

binding result [2]: binds
B23: R19A (peptide)
peptide: GKSIQDLARRFFLHHLIAEIHTA-NH2
notes: also called PTHrP(12-34)NH2 [R19A]

binding result [4]: binds
B24: PTH(15-34)NH2 (peptide)
peptide: LNSMERVEWLRKKLQDVHNF-NH2
notes: also called C-terminally amidated 15-34 fragment of PTH

binding result [5]: binds
B25: PTH(15-34)NH2 [K27′L/L28′I] (peptide)
peptide: LNSMERVEWLRKLIQDVHNF-NH2
notes: Hybrid PTH/PTHrP peptide in the PTH(15-34)NH2 scaffold

binding result [4]: binds
B26: K27A (peptide)
peptide: LNSMERVEWLRKALQDVHNF-NH2
notes: also called PTH(15-34)NH2 [K27A]

binding result [4]: no binding (tested: 20 µM)
B27: W23A (peptide)
peptide: LNSMERVEALRKKLQDVHNF-NH2
notes: also called PTH(15-34)NH2 [W23A]

binding result [4]: no binding (tested: 20 µM)
B28: L24A (peptide)
peptide: LNSMERVEWARKKLQDVHNF-NH2
notes: also called PTH(15-34)NH2 [L24A]

binding result [4]: binds
B29: V21A (peptide)
peptide: LNSMERAEWLRKKLQDVHNF-NH2
notes: also called PTH(15-34)NH2 [V21A]

binding result [5]: binds
B30: PTH(15-34)NH2 [W23′F/K27′L] (peptide)
peptide: LNSMERVEFLRKLLQDVHNF-NH2
notes: as for B25

binding result [4]: binds
B31: Q29A (peptide)
peptide: LNSMERVEWLRKKLADVHNF-NH2
notes: also called PTH(15-34)NH2 [Q29A]

binding result [5]: binds
B32: W23F/V31I (peptide)
peptide: LNSMERVEFLRKKLQDIHNF-NH2
notes: also called PTH(15-34)NH2 [W23F/V31I]

binding result [4]: binds
B33: V31A (peptide)
peptide: LNSMERVEWLRKKLQDAHNF-NH2
notes: also called PTH(15-34)NH2 [V31A]

binding result [4]: binds
B34: H32A (peptide)
peptide: LNSMERVEWLRKKLQDVANF-NH2
notes: also called PTH(15-34)NH2 [H32A]

binding result [4]: binds
B35: E19A (peptide)
peptide: LNSMARVEWLRKKLQDVHNF-NH2
notes: also called PTH(15-34)NH2 [E19A]

binding result [5]: binds
B36: W23F/L28I (peptide)
peptide: LNSMERVEFLRKKIQDVHNF-NH2
notes: also called PTH(15-34)NH2 [W23F/L28I]

binding result [5]: binds
B37: PTH(15-34)NH2 [K27′L] (peptide)
peptide: LNSMERVEWLRKLLQDVHNF-NH2
notes: as for B25

binding result [4]: binds
B38: K26A (peptide)
peptide: LNSMERVEWLRAKLQDVHNF-NH2
notes: also called PTH(15-34)NH2 [K26A]

binding result [5]: binds
B39: PTH(15-34)NH2 [K27′L/V31′I] (peptide)
peptide: LNSMERVEWLRKLLQDIHNF-NH2
notes: as for B25

binding result [4]: binds
B40: R20A (peptide)
peptide: LNSMEAVEWLRKKLQDVHNF-NH2
notes: also called PTH(15-34)NH2 [R20A]

binding result [5]: binds
B41: L28I/V31I (peptide)
peptide: LNSMERVEWLRKKIQDIHNF-NH2
notes: also called PTH(15-34)NH2 [L28I/V31I]

binding result [5]: binds
B42: PTH(15-34)NH2 [L28′I] (peptide)
peptide: LNSMERVEWLRKKIQDVHNF-NH2
notes: as for B25

binding result [5]: binds
B43: PTH(15-34)NH2 [V31′I] (peptide)
peptide: LNSMERVEWLRKKLQDIHNF-NH2
notes: as for B25

binding result [4]: no binding (tested: 20 µM)
B44: L28A (peptide)
peptide: LNSMERVEWLRKKAQDVHNF-NH2
notes: also called PTH(15-34)NH2 [L28A]

binding result [5]: binds
B45: PTH(15-34)NH2 [W23′F/K27′L/L28′I/V31′I] (peptide)
peptide: LNSMERVEFLRKLIQDIHNF-NH2
notes: Quadruple swap peptide in the PTH(15-34)NH2 scaffold; also called W23′F/K27′L/L28′I/V31′I peptide

binding result [4]: binds
B46: F34A (peptide)
peptide: LNSMERVEWLRKKLQDVHNA-NH2
notes: also called PTH(15-34)NH2 [F34A]

binding result [5]: binds
B47: PTH(15-34)NH2 [W23′F] (peptide)
peptide: LNSMERVEFLRKKLQDVHNF-NH2
notes: as for B25
